# Laboratory results published in paper PMC11077089, “Molecular basis of A. thaliana KEOPS complex in biosynthesizing tRNA t6A”.
# T1: KAE1;BUD32 L165K;CGI121;PCC1 (Arabidopsis thaliana;Arabidopsis …, UniProt O49653;Q94K14;Q6NMZ4;Q8GWD7 1-353;1-226;1-172;1-96, |L165K||)
# T1 sequence 1: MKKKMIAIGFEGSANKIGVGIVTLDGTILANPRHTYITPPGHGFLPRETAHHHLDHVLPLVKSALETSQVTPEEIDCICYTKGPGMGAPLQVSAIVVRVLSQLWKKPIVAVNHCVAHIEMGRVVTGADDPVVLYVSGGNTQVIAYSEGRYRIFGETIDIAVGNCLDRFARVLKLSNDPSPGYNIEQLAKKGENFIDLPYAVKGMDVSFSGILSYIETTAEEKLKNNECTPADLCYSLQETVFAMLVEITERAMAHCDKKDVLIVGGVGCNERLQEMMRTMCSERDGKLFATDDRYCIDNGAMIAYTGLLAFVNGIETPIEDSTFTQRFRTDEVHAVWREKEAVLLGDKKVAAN
# T1 sequence 2: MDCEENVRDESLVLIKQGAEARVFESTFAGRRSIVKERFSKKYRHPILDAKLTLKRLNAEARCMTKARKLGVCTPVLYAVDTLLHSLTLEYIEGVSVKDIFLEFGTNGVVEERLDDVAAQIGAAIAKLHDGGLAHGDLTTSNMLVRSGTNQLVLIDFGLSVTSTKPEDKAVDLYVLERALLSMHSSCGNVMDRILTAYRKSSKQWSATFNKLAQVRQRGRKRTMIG
# T1 sequence 3: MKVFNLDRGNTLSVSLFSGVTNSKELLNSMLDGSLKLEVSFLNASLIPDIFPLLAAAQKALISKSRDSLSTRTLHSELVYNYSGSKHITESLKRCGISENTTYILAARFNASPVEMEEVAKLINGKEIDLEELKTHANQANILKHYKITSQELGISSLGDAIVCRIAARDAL
# T1 sequence 4: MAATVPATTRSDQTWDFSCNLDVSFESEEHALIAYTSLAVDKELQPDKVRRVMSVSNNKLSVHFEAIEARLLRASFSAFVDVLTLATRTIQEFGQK
# T2: KAE1;BUD32 I47K;CGI121;PCC1 (Arabidopsis thaliana;Arabidopsis …, UniProt O49653;Q94K14;Q6NMZ4;Q8GWD7 1-353;1-226;1-172;1-96, |I47K||)
# T2 sequence 1: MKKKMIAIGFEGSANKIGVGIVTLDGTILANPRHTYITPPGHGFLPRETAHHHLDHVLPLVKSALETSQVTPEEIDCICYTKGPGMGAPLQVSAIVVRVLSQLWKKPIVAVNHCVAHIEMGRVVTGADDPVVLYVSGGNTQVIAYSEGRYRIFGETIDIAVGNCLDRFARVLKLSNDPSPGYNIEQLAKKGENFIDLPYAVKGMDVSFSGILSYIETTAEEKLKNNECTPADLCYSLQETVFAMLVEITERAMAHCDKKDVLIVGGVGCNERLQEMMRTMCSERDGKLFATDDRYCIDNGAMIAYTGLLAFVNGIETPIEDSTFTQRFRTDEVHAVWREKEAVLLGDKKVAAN
# T2 sequence 2: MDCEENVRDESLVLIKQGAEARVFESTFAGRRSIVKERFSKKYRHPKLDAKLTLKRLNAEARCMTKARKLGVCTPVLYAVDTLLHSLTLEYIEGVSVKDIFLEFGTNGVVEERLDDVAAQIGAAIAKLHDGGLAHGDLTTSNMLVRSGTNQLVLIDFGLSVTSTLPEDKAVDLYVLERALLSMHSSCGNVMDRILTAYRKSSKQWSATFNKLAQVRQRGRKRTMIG
# T2 sequence 3: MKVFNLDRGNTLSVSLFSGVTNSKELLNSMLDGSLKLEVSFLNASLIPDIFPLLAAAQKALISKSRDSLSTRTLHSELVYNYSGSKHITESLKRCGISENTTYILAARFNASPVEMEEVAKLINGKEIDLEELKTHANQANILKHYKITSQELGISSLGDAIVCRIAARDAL
# T2 sequence 4: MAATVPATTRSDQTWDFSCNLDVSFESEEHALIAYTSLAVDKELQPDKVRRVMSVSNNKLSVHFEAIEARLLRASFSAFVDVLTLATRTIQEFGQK
# T3: CGI121 (Arabidopsis thaliana, UniProt Q6NMZ4 1-172)
# T3 sequence: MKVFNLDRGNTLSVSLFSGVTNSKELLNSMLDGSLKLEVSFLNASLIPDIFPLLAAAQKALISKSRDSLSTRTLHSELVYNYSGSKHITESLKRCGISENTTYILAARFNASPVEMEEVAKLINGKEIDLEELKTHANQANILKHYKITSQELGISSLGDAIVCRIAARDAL
# T4: KAE1;BUD32 R220stop;CGI121;PCC1 (Arabidopsis thaliana;Arabidopsis …, UniProt O49653;Q94K14;Q6NMZ4;Q8GWD7 1-353;1-219;1-172;1-96, |del220-226||)
# T4 sequence 1: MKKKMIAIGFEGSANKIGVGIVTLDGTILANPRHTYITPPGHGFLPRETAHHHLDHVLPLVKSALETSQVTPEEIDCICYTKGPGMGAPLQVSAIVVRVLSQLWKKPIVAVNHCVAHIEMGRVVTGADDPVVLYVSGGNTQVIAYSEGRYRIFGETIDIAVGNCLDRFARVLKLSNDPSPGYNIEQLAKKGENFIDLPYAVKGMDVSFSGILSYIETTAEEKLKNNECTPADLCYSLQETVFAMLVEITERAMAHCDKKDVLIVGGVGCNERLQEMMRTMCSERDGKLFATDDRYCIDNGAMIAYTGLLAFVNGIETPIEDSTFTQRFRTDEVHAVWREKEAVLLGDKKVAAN
# T4 sequence 2: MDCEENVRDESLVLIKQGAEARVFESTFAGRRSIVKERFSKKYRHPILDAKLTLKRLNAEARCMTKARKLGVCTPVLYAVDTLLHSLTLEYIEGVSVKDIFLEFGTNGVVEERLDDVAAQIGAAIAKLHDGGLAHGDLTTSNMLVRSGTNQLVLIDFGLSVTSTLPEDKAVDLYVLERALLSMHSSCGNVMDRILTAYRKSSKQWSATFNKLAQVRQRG
# T4 sequence 3: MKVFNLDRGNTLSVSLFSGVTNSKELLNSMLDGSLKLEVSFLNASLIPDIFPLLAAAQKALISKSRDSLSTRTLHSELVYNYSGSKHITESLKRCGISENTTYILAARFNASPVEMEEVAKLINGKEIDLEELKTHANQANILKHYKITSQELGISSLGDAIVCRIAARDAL
# T4 sequence 4: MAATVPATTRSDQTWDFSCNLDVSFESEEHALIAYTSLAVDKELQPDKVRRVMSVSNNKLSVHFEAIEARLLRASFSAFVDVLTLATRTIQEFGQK
# T5: KAE1;PCC1 (Arabidopsis thaliana;Arabidopsis …, UniProt O49653;Q8GWD7 1-353;1-96, |)
# T5 sequence 1: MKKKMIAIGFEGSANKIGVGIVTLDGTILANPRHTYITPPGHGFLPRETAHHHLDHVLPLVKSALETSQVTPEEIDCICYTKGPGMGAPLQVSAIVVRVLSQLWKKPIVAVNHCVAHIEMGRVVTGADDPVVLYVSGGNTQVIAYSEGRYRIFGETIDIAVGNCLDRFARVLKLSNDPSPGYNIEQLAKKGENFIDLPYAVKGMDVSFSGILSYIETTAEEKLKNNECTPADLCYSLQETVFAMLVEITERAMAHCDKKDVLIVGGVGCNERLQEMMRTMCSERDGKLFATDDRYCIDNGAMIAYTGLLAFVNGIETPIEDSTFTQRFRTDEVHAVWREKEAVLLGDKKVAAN
# T5 sequence 2: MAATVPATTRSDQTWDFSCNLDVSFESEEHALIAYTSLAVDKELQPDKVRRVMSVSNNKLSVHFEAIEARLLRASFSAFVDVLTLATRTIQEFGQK
# How the values were obtained:
# Test in all cases: EMSA; MST: 20 mM PBS pH 7.5, 300 mM NaCl, 0.05% Tween 20, 25 C, 50 nM RNA; EMSA: 20 mM Tris-HCl pH 7.5, 300 mM NaCl, 5 mM b-mercaptoethanol, 20% glycerol, agarose gel in Tris-glycine pH 8.0 (8.5 for FAM-RNA), 4 C
# [1] = target: T1, KAE1;BUD32 L165K;CGI121;PCC1; conditions: protein: recombinant;recombinant;recombinant;recombinant; tags: none (6His on partner PCC1);;6His (C-term);6His (C-term); chain copies: 2;2;2;2; label: 5' 6-FAM; tRNA cloverleaf
# [2] = target: T2, KAE1;BUD32 I47K;CGI121;PCC1; conditions: protein: recombinant;recombinant;recombinant;recombinant; tags: none (6His on partner PCC1);;6His (C-term);6His (C-term); chain copies: 2;2;2;2; label: 5' 6-FAM; tRNA cloverleaf
# [3] = target: T3, CGI121; conditions: protein: recombinant; tags: 6His (C-term); label: 5' 6-FAM; tRNA cloverleaf
# [4] = target: T4, KAE1;BUD32 R220stop;CGI121;PCC1; conditions: protein: recombinant;recombinant;recombinant;recombinant; tags: none (6His on partner PCC1);;6His (C-term);6His (C-term); chain copies: 2;2;2;2; label: 5' 6-FAM; tRNA cloverleaf
# [5] = target: T5, KAE1;PCC1; conditions: protein: recombinant;recombinant; tags: none (6His on partner PCC1);6His (C-term); chain copies: 2;2; label: 5' 6-FAM; tRNA cloverleaf
binder,measurement,setting,value
5'-6FAM-tRNAArgCCU (structured_RNA) RNA: GCGCCUGUAGCUCAGUGGAUAGAGCGUCUGUUUCCUAAGCAGAAGGUCGUAGGUUCGACCCCUACCUGGCGCGCCA,binding result,[1],binds
same,binding result,[2],binds
same,binding result,[3],no binding
same,binding result,[4],binds
same,binding result,[5],no binding
